{
  "source": "the nanobody polyreactivity screen of Harvey et al. (2022)",
  "assay": "yeast display, Sf9 membrane polyspecificity reagent, FACS + sequencing; frameworks hold sequencing errors",
  "procedure,_shortened": "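A synthetic nanobody library was expressed on Saccharomyces cerevisiae BJ5465 by galactose induction for 36–48 hours. The library was stained for 1 hour at 4 °C with 10% biotinylated, detergent-solubilized Sf9 membrane reagent and enriched with streptavidin microbeads before FACS. Low and high (top ~1%) gates were set on anti-HA fluorescence for expression and streptavidin fluorescence for reagent binding, and each polyreactivity label reflects the gate of origin.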",
  "data": [
    {"sequence": "QVQLVESGGGLVQAGGSLRLSCAASGSTFLDNAMGWYRQAPGKERELVASITSSGGNTYYADSVKGRFTISRDNAKNTVYLQLNSLTPEDTAVYYCAADAASYWRYNSANYDYDYWGQGTQVTVSS", "values": [
      {"measurement": "polyreactivity (PSR sort gate)", "value": "low polyreactivity"}
    ]},
    {"sequence": "QVQLVESGGGLVQAGGSLRLSCAASGSTFLGNAMGWYRQAPGKERELVAGITSGGTTNFADSVKGRFTISRDNAKNTVYLQMNSLKPEDTAVYYCNADVWIGQRLDPGYDFDYWGQGTQVTVSS", "values": [
      {"measurement": "polyreactivity (PSR sort gate)", "value": "low polyreactivity"}
    ]},
    {"sequence": "QVQLVESGGGLVQAGGSLRLSCAASGSTFLGNAMGWYRQAPGKERELVATITGSSGSTYYADSVKGRFTISRDNAKNTVYLQMNSLKPEDTAVYYCAAQRRVVGRHGLSLIRYDYWGQGTQVTVSS", "values": [
      {"measurement": "polyreactivity (PSR sort gate)", "value": "low polyreactivity"}
    ]},
    {"sequence": "QVQLVESGGGLVQAGGSLRLSCAASGSTFLGNVMGWYRQAPGKERELVAAISRGGSRTYYADSVKGRFTISRDNAKNTVYLQMNSLKPEDTAVYYCAAEPYAASRSGEFNYWGQGTQVTVSS", "values": [
      {"measurement": "polyreactivity (PSR sort gate)", "value": "low polyreactivity"}
    ]},
    {"sequence": "QVQLVESGGGLVQAGGSLRLSCAASGSTFLGNVMGWYRQAPGKERELVAAITSTGGNTYYADSVKGRFTISRDNAKNTVYLQMNSLKPEDTAVYYCAKKYVWTHNYWGQGTQVTVSS", "values": [
      {"measurement": "polyreactivity (PSR sort gate)", "value": "low polyreactivity"}
    ]},
    {"sequence": "QVQLVESGGGLVQAGGSLRLSCAASGSTFLGYDMGWYRQAPGKERELVAAISIGGSTYYADSVKGRFTISRDNAKNTVYLQMNSLKPEDTAVYYCARVTWGHQVIYGLSDYDSWGQGTQVTVSS", "values": [
      {"measurement": "polyreactivity (PSR sort gate)", "value": "low polyreactivity"}
    ]},
    {"sequence": "QVQLVESGGGLVQAGGSLRLSCAASGSTFLHSAMGWYRQAPGKEREFTYYADSVKGRFTISRDNAKNTVYLQMHSLKPEDTAGYYCNAGPYWSPYGDDVGYWGQGTQVTVSS", "values": [
      {"measurement": "polyreactivity (PSR sort gate)", "value": "low polyreactivity"}
    ]},
    {"sequence": "QVQLVESGGGLVQAGGSLRLSCAASGSTFLINAMGWYRQAPGKERELVAAISRDGSTNYADSVKGRFTISRDNAKNTVYLQMNSLKPEDTAVYYCAAVQGISVGRQPGYDYDYWGQGTQVTVSS", "values": [
      {"measurement": "polyreactivity (PSR sort gate)", "value": "low polyreactivity"}
    ]},
    {"sequence": "QVQLVESGGGLVQAGGSLRLSCAASGSTFLLYAMGWYRPAPGKERELVATISWGGDGTYYADSVKGRFTISRDNAKNTVYLQMNSLKPEDTAVYYCAAESYLVQFYFLYYYWGQGTQVTVSS", "values": [
      {"measurement": "polyreactivity (PSR sort gate)", "value": "low polyreactivity"}
    ]},
    {"sequence": "QVQLVESGGGLVQAGGSLRLSCAASGSTFLLYAMGWYRQEPGKERELVAAITWSGASTYYADSVKGRFTISRDNAKNTVYLQMNSLKPEDTAVYYCATRYRYRYWGQGTQVTVSS", "values": [
      {"measurement": "polyreactivity (PSR sort gate)", "value": "high polyreactivity"}
    ]},
    {"sequence": "QVQLVESGGGLVQAGGSLRLSCAASGSTFLLYDKGWYRQAPGKERELVAAITWSGGSTYYADSVKGRFTISRDNAKNTVYVQMNSLIPEDTAVYYCAADSLGDRYYYWGQGTQVTVSS", "values": [
      {"measurement": "polyreactivity (PSR sort gate)", "value": "low polyreactivity"}
    ]},
    {"sequence": "QVQLVESGGGLVQAGGSLRLSCAASGSTFLPYGMGWYRQAPGKERELVAAITQRGGSTYYADSVKGRFTISRDNAKNTVYLQMNSLKPEDTAVYYCAARYTGRRRLWTGPGYEYWGQGTQVTVSS", "values": [
      {"measurement": "polyreactivity (PSR sort gate)", "value": "high polyreactivity"}
    ]},
    {"sequence": "QVQLVESGGGLVQAGGSLRLSCAASGSTFLRNVMGWYRQAPGKERELVAAISSRGGSTHYADSVKGRFTISRDNAKNTVYLQMNSLKPEDTAVYYCNSERTAAQYVRAAYDYWGQGTQVTVSS", "values": [
      {"measurement": "polyreactivity (PSR sort gate)", "value": "low polyreactivity"}
    ]},
    {"sequence": "QVQLVESGGGLVQAGGSLRLSCAASGSTFLRYAMGWYRQAPGKERELVAAISVSGGSTYYADSVKGRFTISRDNAKNTVYLQMNSLKPEDTAVYYCNAVTKFHRRYNYWGQGTQVTVSS", "values": [
      {"measurement": "polyreactivity (PSR sort gate)", "value": "high polyreactivity"}
    ]},
    {"sequence": "QVQLVESGGGLVQAGGSLRLSCAASGSTFLSYAMGWYRQAPGKERELVAAISCRGGSTYYADSVKGRFTISRDNAKNTVYLQMNSLKPEDTAVYYCARVYRPSADTYNYWGQGTKVTVSS", "values": [
      {"measurement": "polyreactivity (PSR sort gate)", "value": "high polyreactivity"}
    ]},
    {"sequence": "QVQLVESGGGLVQAGGSLRLSCAASGSTFLSYAMGWYRQAPGTERELVAGIDWSTGDTYYADSEKGRFTISRDNAKNTVYLQMNSLKPEDTAVYYCNKANLYRFWEIDYWGQGTQVTLSS", "values": [
      {"measurement": "polyreactivity (PSR sort gate)", "value": "high polyreactivity"}
    ]},
    {"sequence": "QVQLVESGGGLVQAGGSLRLSCAASGSTFLTNAIGWYRQATGKEREIVADITWSGGSTYYADSVKGRFTISRDNAKNTVYLQMNSLKPEDTAVYYCAVDAYSSVYLWGFVRFDYWGQGTQVTVSS", "values": [
      {"measurement": "polyreactivity (PSR sort gate)", "value": "low polyreactivity"}
    ]}
  ]
}
